Source: doi:10.64898/2025.12.15.694443

Target: BRAF kinase domain (his6-BRAF^445-723-intein, intein cleaved) (human) (UniProt P15056)
Assay: mass photometry

- stoichiometry N: 2
Substance: BRAF kinase domain (his6-BRAF^445-723-intein, intein cleaved) (from UniProt P15056 445-723) (domain or fragment)
